Assay: label from the status in PepcDB records

With “MLNNFLNLELLNISLSYPFLFLITTAIVLLLCSGFWKFHRSFYIGISSLSLIVSAFLILNNANAQGLEAKAFLATLNNDIVSFYASLVILCFSFLYLLMQKEENQGEFYALFLFMIASLLLMVSSSNLVLIFIGLESSSLALYTLIAMRGSDNAISSAIKYFSIAAVGAGFFVMAVAFIYLKTGTLDLSANLALKNEFQKDPMLLGAGVMIFVLCAIKLSLAPFHFWLKDVYYAAHTNLVAFISVVPKVAMLVVVIRLFDFLNNTGFEYIIIVLAIFSMLIGAFAALSQNNIKKMFAYSSVVHSSLVLIACIPLLKEQNFDGILLAIFGYWTLFAFANYAVFMILSNYENNSYESLNGLLVKKPLIAFCLSISVLSLAGIPPFGVFWGKFMILNTVILNGYWYLALFVALSSVIMLYAYLKILIHVLFMKNDRVYNIKFSFIQNFILAFCVCVSIFAILLML” as the sequence, how does the protein production read?
Its protein production is “failed”.

With “MLNPEQVKRFLETAKQDPLYPAFLLALGTGLRRGEILGLRWQDLDLQKGILQVRQSLIRTREGLKFEEPKTEKSRRQIPLPPSVVAALKRHKAWVNQNKLILGPDYEDHDLVFPVENGRPRDPKGFAEYFNRLLDKAGLPHIRLHDLRHTHATLLLLEGVHPKVVQERLGHSTVSITLDIYSHILPGLQEKAAERIDGLLQPKENPSPKEGTIKLEHHHHHH” as the sequence, how does the protein production read?
The protein production was “not failed”.

For “MLNRGGFTYPGQRWKHCINTLLTGGVLLIVSASAYADSNALGYKIPGYELVYDAPMETTLTTPDLRPSDAVWISLFDNAQHTIELGQFYVANQAGTRLDSVLQHLRAAGERGVRIRLLLEEKGLKISTQDTLDQLKTIPNLELRVIPFERLSGGILHAKYLLVDGKQAYMGSQNLDWRALEHIHETGLLIDDPRVVNQISTIFEQDWQAQARLSNGETVPPLPASTDAVDRSGNYLVASPKAFNPAGVMDSEEELPRLLAEAQQQVRIQVMDYVPLSYGPDKTRPFYAVIDNAIRTAAARGVQVELMVSEWSTKMPNIAYLKSLALLPNIQIKTVSIPQVSSGFIPFARVIHSKIMTIDGTKTWIGTSNWSGGYLDNSRNLEMVIQNPAMAQRVDLLYTQLWNSAYAHPLRIDYDYPQPNPGGVKEKEQENTASSTTGGTVTAP”, which protein production is on record?
The protein production was “failed”.

With “MLNYLIFFPLISAFVVLLLNRGGVKVFSVVVSFMILALNLDTFADFLQGVSFDYNLSFKILKFFSFHVGVDSIALVLMLLSSLMIFLSFLFLKLEQKALISCIFFLEFAIMGLFSAKDGLLFYIFWEFSLLPLLYIMGVYGKDFRAGVKFFIYAFAGSILMLVALIYQAYLNYQLLNIFTFDLEIWKNNASAANFTEQLLLFGAFFIAFAIKAPLFPLHTWAPKVYANSPILVSVMLVVFKMAPFGFLLFCLPLFPDASVYFMPLIVALCIVSIVYNALIAYRAENIKELIAYSSISHLGVMILGIFSLNALGISGAVFYMFAHGIVTGTLFLMVELLYQRYHTYDISFYHSLAKKAPLFSIFFMLILLASVSLPLTVSFVGEFLILLGIAKINLFYALLAGLVIILGAIYMFAVFRKIFFMQKQSFIEGFSLRFREIVALVCIVVMIFGLGLMPNILLKPIQKDVDNLIKTMNIRAVEQNTLDFLSKIGEANVK” as the sequence, how does the protein production read?
Its protein production is “failed”.

With “MLPIASGNDDRNLIRYVDGGRFDEIMLTGDLTGLSSFLTNAGPNARDDFDLTVLMRAAEAGNLMVVARLLDLGANPRLTNPRGVTALHIAAIAGDDGIVECLIDAGAEVDAVDDQGRTPLWNAAAHHLPDSAVVDVLLRAGANVNLRDCNGVSPEDML” as the sequence, how does the protein production read?
Its protein production is “failed”.

With “MLPSPSSSSAPTKRIDPSELKRVFQMFDKNGDGRITKEELNDSLENLGIYIPDKDLTQMIHKIDANGDGCVDIDEFESLYSSIVDEHHNDGETEEEDMKDAFNVFDQDGDGFITVEELKSVMASLGLKQGKTLDGCKKMIMQVDADGDGRVNYKEFLQMMKGGGFSSSN” as the sequence, how does the protein production read?
Its protein production is “not failed”.

For “MLQNRLNKARSHAEKHDVDAIVFFNMSNVRYLSGFTGSDGAVVLGRDASWFLTDSRYTTQASRQVVGLPTVEYRIKLDGITELVREQGFRRIGFESEHTAFAVYESLRQKLPKTELVPIGEELAQLRLIKDPSECELLSRVARLASEALLSILPLVKPGAVERELALELEFAMRRAGAENASFDFIVASGERGSLPHGRASDKALAAGELVTIDFGARYEGYCSDETVTVAVGVPDERQCQIYGIVKEAHDRAIAAVRPGAELREIDRIARGYIEEQGYGAFFGHGLGHGVGLDVHEKPVVSPRGEGVAAVGMVFTIEPGIYIPGWGGVRIEDTVIVTEDGCRPITMIPKELMIL”, which protein production is on record?
Its protein production is “failed”.

With “MLRFAVLGHPVAHSLSPAMHAFALESLGLEGSYEAWDTPLEALPGRLKEVRRAFRGVNLTLPLKEAALAHLDWVSPEAQRIGAVNTVLQVEGRLFGFNTDAPGFLEALKAGGIPLKGPALVLGAGGAGRAVAFALREAGLEVWVWNRTPQRALALAEEFGLRAVPLEKAREARLLVNATRVGLEDPSASPLPAELFPEEGAAVDLVYRPLWTRFLREAKAKGLKVQTGLPMLAWQGALAFRLWTGLLPDPSGMEEAARRALGV” as the sequence, how does the protein production read?
The protein production was “not failed”.

For “MLRFGFAAVLLVLAGCSAPMGPEALGPGSYQAAPDPGPFLTPADAQRAFPAVVARVEPVAEAICRERTRGVPCDFQIAVDARPGLDPNAFQTLDDYGRPVIGLTLSLISDARNVDELAFVVGHETAHHILGHIPRQRETALTGAVLAGVLAQMGGADAQTIRSVQEFGANVGARSYSKNFELEADGLGTEIAIRAGYDPVHGAQFFTRLPDPGDTFLGSHPPNAQRIAAVRRAAESIGYVSAWLEHHHHHH”, which protein production is on record?
The protein production was “failed”.

With “MLRFPGQGHHNPDDVVIGLLDLAARVDEALAVQAVAFGLGADEVAVRHQIVLRHLTSPGARAFGATTGDGRLVGFVYGMPNDRTHWWSTVVEPYLRGQGHEDWLDNSFVITELHVHPHFQNHGIGRSLITTITDGAAEPRSILSAIDTESPARGLYHSLGYEDLARQVLFPSAPRPYAVMGAPLPLRRR” as the sequence, how does the protein production read?
Its protein production is “failed”.

With “MLRGDILDSKRTSIMTRFSSLLLALSVLLLPLRPAQGQPAERTSSLTVEQIMQAPETWIGDWPTNARWHESGQALYFNWNPGGDFPSDSLYKVSRSGGAPQKVSPAERRSNPPTFDGWHHGEHVYTDDFSRKVYAADGDLYLYNRETDTQTRLTDTPAREGNPRFGLEEDRVLFERDDNLFSVHLSTGQIRQLTNVQSGREPQEGAPSPRERFLEEQQLELFETLRERNEEEEQADEARERDREADDPPPPFYTGDAEVSALRMDPTERFVTIAQQSQPDAADPTQVIDYVTESGQADVRRARPKVGIPPGDFALHVQDLKRDTTIAVNLHQLPGAYDVPAYRQEQGAELDSSEAKRALYSYGPYWSADGDHGVLVVRADNNKDRWIARLDPETGDLTVLDRQHDTAWIGGPGISAYGGPGNVGWMPDGEHFYFQSEATGYSHLYTVDVETGETTQLTSGDFEVLDARLSQDGSTWTLTTNRHSPHQQHVERMPADGGDITRLTQMTGTHDAVLSPDGTRLATLYSTTNQPADLYLKDATADADPVRITESPTDEWAAYDWRMPELTRFEASDGVEVPAHVFRPDNPNGAAVFFVHGAGYLQNVLKDFPPYFREYMFHNMLTDLGYTVVDVDYRGSAGYGRDWRTAVYRHMGGRDLQDYVDAAKWVGDTYGIPAERRFIYGGSYGGFMTLMALFTEPEHFGGGAALRSVTDWAHYNDVYTSNILNTPQTDSLAYARSSPIYHAEGLEDPLLMPHGLVDTNVQPQDIFRLTQRLIELGKENWELAIYPVEGHGFEEPSSWTDEYRRIFELIQESVGPERPQN” as the sequence, how does the protein production read?
The protein production was “failed”.

Which protein production does the source give for “MLRGLRIIAENKIGVLRDLTTIIAEEGGNITFAQTFLIKHGEHEGKALIYFEIEGGDFEKILERVKTFDYIIEIEEEESFERVFGKRVIILGGGALVSQVAIGAISEADRHNLRGERISVDTMPVVGEEEIAEAVKAVSRLHRAEVLVLAGGIMGGKITEEVKKLRKSGIRVISLSMFGSVPDVADVVISDPVMAGTLAVMHISEKAKFDLDRVKGRRI” here?
The protein production was “not failed”.

Which protein production does the source give for “MLRIFSAKNEVDSKYIFMLAFMLALFSSGVPPEIVILHLSREDSFEPYTKVFKKIRNLVSGYRYKFSSAITYSIKNLNIRFLKEFLIRLSQAVTFGDDMIEFLSREIDFTLSEYNAYSARLIESMNNFLTIYATLNSSLTFLVADITILSLIYSGGTTLIIQLTILSLALLGNLTLVMYLLYRPENYIRYNVIDKFVLTFTISLSIIFSVIYTSYIVLMGTGIVLLGIGLRYRLYENKINRIERHFLLFIRYFSRNYAIVSNLKESLMAVLRGDLGDVRPLIRRSLNRLNFGIDKEKIFRLIGDESGSILVSMLSKVLYETISMGGNAMIIGEILSKIGDSVLNIRSRKEQNGRAFETSIYALQTASAGVSAALISIVGMLNNIFSTQNVSTVFSFSEVNIDIISRIFLIILLILSFANGIAITLAYGKSLYVSLYFIGILIILSSISYHIVLILTGNIFKELASPSGLLQTT” here?
Its protein production is “failed”.

For “MLRLVKKSVIGLVDWFLYKALKTSQKQFLSSLLTEKQKQAIKRVIKPGKKQTQLRKIERLKYRLYNLGFTNRALEDLQLICRESGEPYLKRLAAWELALWHANQYTTEDAKACLRYLDIATTGVKDRDDLRAVAIVKAECYDLLGEREQGKELVQQMIETQPHPDLYLAAANLETTVAQRMKWINKVFAHYGTEPLELTEQADEKSPYDALGVNGIDESSENDEQPKVTVIIPAFNAESVIQTSIESMQKQTWTNLEIFVVDDCSTDETASIVHQYAEQDHRVHYLKTETNSGAYVARNIALQHATGDFVTINDADDWSHSRKIEIQVRHLLKHPNIIGNFSQQVRATNDLKFYRRGKPGLYIFANMSSFMFRRKPAMDKLGYWDCVRFAGDSEFVKRIKLAFGEKAVVELPTAPLSFQRQSGESLTSHSAFGFPGYFMGARREYAEAHDHFHRTSQEGLRYSFPQKERPFPVPEPMLPNRQPKSAGRRHFDVILASEFRLLGGTNMSNVEEIKAQREMGLRTGLIQLSRYDLNSVEAINPNVRELIDGDQVQMIVYGEQVSCDVLIVRHPPILQEWQRYVPNVEAKSVHVIVNQPPQRDYGDNGSVLYELPRCIDHLQAYFGKKGIWYPIGPNVREALYEHHHKDLQAIPFSDQDWVNIINVKEWKRVTRREKDGKIKIGRHSRDQYVKWPKDRATMLQIYPDKEPFEVHILGGAKSPTKVLGSLPANWHVREFGEVHPREFLAELDVFVYFTHPDWVEAFGRVVFEAMAAGVPVIVPHEYEKLFGEAAIYAEITEVQEKVMKLMADDKYYQSQVEKALIYVENQFGYSQHAARLETFLHEDERAEV”, which protein production is on record?
Its protein production is “failed”.

With “MLRVIVESASNIPKTKFGKPDPIVSVIFKDEKKKTKKVDNELNPVWNEILEFDLRGIPLDFSSSLGIIVKDFETIGQNKLIGTATVALKDLTGDQSRSLPYKLISLLNEKGQDTGATIDLVIGYDPP” as the sequence, how does the protein production read?
Its protein production is “not failed”.

With “MLRYLALSEAGIAKLPRPQSRCYHSEKGVWGYKPIAQREFQVAEDVRASRNSQANVYRFVEAFRQHGHKLAAVNPISIRTSQQELQELSPAFYGLQTQEPVRTDGLLSGPQVAHNVAQLEQLLKDIYCGRSTSAEFSYVEDIEEREWLARNFETLDQQQLGKSERCEIAELLIKSQAWDNFMALKFPTVKRYGGEGAESMLAFFWQLLRDSVQANIEHVVLAMPHRGRTPLQAALLNMRPAKVFRKLSGASEFSEDIEAMSDVISHFHVSEQLKILGKKLSFSMVRNPSHLEAANPVAMGKTRSKQQARGEGAFGDGSQPFGEHVLNVILHGDAAFAGQGINQECLNMAYVPHFEVGGSLHLIVNNQVGFTTPGDRGRSTAYTSDLAKSIQAPVFHVNGDDPEALARVTSLAFRYQREFRKDIFIDLNCFRRWGHNELDDPTFTNPLVYKIVHQRESVPDLYAQQLAKEQVLSESKAKEMRDEYMKYLGEELALAPAYQPPPSYFEKQWTNFQLAPSKELTYWDTGLDYSLLHYIGQQSVTFPEDFNIHPHLLKTHVNARLKKLENGVKIDWSTAEALAIGSLMYQGHNVRISGEDVGRGTFSHRHAMLVDQQTNEMFIPLNSMEGGNGGKLELAHSILSEEAVLGFEYGMAIDNPNNLIIWEAQFGDFANGAQIIIDTFIVSGETKWMESNALVMLLPHGYDGAASEHSSCRIERFLQLCDSKETSADGDSVNVHIVNPTTPAQYYHVLRRQLARNFRKPLVVVAPKTLLRLPAATSTHEDFQPGTLFHNVLGDTIAKPEQVRKVILCSGKHYYTLAEEREKRQAYDTAILRLESLCPFPIQELQAQLAQYGNVQSFVWSQEEHRNMGAWTFVRPRFENLIGQQLHYCGRCEAPTPATGIGKVHKREVDEIVAAPFEL” as the sequence, how does the protein production read?
Its protein production is “failed”.

Reference: a protein production outcome set (Wang et al. 2014)
